These results are taken from patent US20190292247A1 (DEGENRX B V, published 2019).

In assay [1] the target is T1, Stable Crossbeta oligomers (Perkin Elmer Amyloid Oligomers AlphaLISA High-Specificity Detection Kit (AL334F)) (UniProt P05067 672-713).
T1 construct: also called Aβ-oligomers
Kind of assay: sandwich ELISA: CBB-VNAR coated at 2 µg/ml as capture, the stable oligomer concentration is varied, detection with 6E10-biotin and streptavidin-HRP; sandwich ELISA; CBB-VNAR coated 2 µg/ml as capture; stable Crossbeta oligomer titrated. The method, then: (§1) The generic amyloid beta binding antibody 6E10-biotin was immobilized on streptavidin Alphascreen®donor beads, while FLAG-tagged CBB-VNAR was immobilized on anti-FLAG Alphascreen®acceptor beads. These beads were incubated with different concentrations of amyloid beta 1-42 derived antigens (oligomers, monomers, fibrils, all prepared as described in example 1). In this format, a specific signal is generated when donor/6E10 and acceptor/CBB-VNAR beads simultaneously bind to different epitopes on the same molecule. […] Plates were then read using a Perkinelmer Enspire® plate reader using the 384 well factory preset measuring protocol. […] Stable Crossbeta oligomers (Perkin Elmer Amyloid Oligomers AlphaLISA High-Specificity Detection Kit (AL334F)) were also detected using an ELISA sandwich immunoassay format where the CBB-VNAR was immobilized to Nunc amino immobilizer plates (2 μg/ml coating, 1 hr rT) to serve as oligomer capture molecule. After incubation of the CBB-VNAR coated wells with different amounts of stable oligomer for 1 hour, wells were washed and bound oligomer was detected using sequential incubation with 6E10-biotin and streptavidin-HRP as described in example 1.
(In general: In an ELISA, binding on a coated surface is turned into a signal by an enzyme label.)

In assay [2] the target is T2, amyloid beta 1-42 oligomer (UniProt P05067 672-713).
T2 construct: domain: amyloid beta 1-42; Soluble oligomeric aggregate; also called Aβ-oligomers; oligomeric amyloid beta 1-42
T2 sequence (P05067 672-713 limits assumed): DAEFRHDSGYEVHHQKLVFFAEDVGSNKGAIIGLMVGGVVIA
Kind of assay: intrinsic Trp fluorescence titration, 0.5 uM CBB-VNAR in PBS pH 7.2 with 0.5 mM EDTA, excitation 280 nm. From the text: The amino acid residue tryptophan (Trp or W) intrinsically fluoresces upon excitation in the range 280-295 nm. The emission intensity (i.e. quantum yield) and emission wavelength are sensitive towards the local environment of the Trp residue. The local environment can change, for example, when the Trp residue is involved in conformational changes or ligand binding. Therefore, Trp emission is widely used to study proteins and their interaction with other proteins or small molecules. […] To evaluate whether the Trp residues of CBB-VNAR are involved in the binding of amyloid beta oligomer antigen, a fluorescence titration study was performed. For this experiment, 0.5 uM CBB-VNAR or 12Y2 control VNAR were titrated with known quantities of amyloid beta oligomer (ABO) in Phosphate Buffered Saline (PBS) buffer, pH 7.2. […] After each ABO addition, the sample was equilibrated until the Trp fluorescence intensity was stable, and Trp emission spectra were recorded between 320 and 450 nm using 280 nm excitation. […] Upon addition of ABO, the emission intensity of CBB-VNAR decreases in a dose-dependent and saturable fashion where the intensity decreases to about 70% of the intensity measured for the native protein (FIGS. 5A and C). […]

Assay [3] concerns the target T2, amyloid beta 1-42 oligomer. Kind of assay: intrinsic Trp fluorescence quenching; the varied concentration is that of the oligomer (ABO), with CBB-VNAR fixed at 0.5 uM. The text has this: Therefore, Trp emission is widely used to study proteins and their interaction with other proteins or small molecules. The invariable core structure of the VNAR as isolated from wobbegong sharks has two Trp residues (see sequence below, Trp indicated in black) of which one is buried inside the protein whereas the other is exposed to the solvent (see FIG. 5D). The CBB-VNAR has two additional Trp residues in the CDR regions (one in CDR1, one in CDR3). No Trp residues are present in the CDR regions of the 12Y2 control protein. Apart from the CDR sequences, this control 12Y2 protein has an amino acid sequence identical to that of CBB-VNAR. To evaluate whether the Trp residues of CBB-VNAR are involved in the binding of amyloid beta oligomer antigen, a fluorescence titration study was performed. For this experiment, 0.5 uM CBB-VNAR or 12Y2 control VNAR were titrated with known quantities of amyloid beta oligomer (ABO) in Phosphate Buffered Saline (PBS) buffer, pH 7.2. […] After each ABO addition, the sample was equilibrated until the Trp fluorescence intensity was stable, and Trp emission spectra were recorded between 320 and 450 nm using 280 nm excitation. […] Upon addition of ABO, the emission intensity of CBB-VNAR decreases in a dose-dependent and saturable fashion where the intensity decreases to about 70% of the intensity measured for the native protein (FIGS. 5A and C). […]

Assay [4] deals with T2, amyloid beta 1-42 oligomer. Nature of the assay: Alphascreen proximity sandwich: 6E10-biotin on streptavidin donor beads, CBB-VNAR on anti-FLAG acceptor beads; the oligomer concentration is varied; Alphascreen bead sandwich with 6E10-biotin; oligomer in solution titrated; apparent EC50. The method, then: as §1
A general note: Alpha assays give light when donor and acceptor beads are brought close together.

Assay [5] deals with T2, amyloid beta 1-42 oligomer. Kind of assay: ELISA on immobilized oligomer (5 µg/ml), anti-FLAG-M2-HRP detection; ng/ml, as measured in the ELISA. The method, then: To probe the binding affinities of CBB-VNAR towards different amyloid beta species and aggregation states, ELISA assays were performed. As a comparator antibody, the well-characterized 6E10 antibody was used. The 6E10 antibody recognizes N-terminal amino acid residues 3-8 of amyloid beta (EFRHDS), an epitope that is present and available for antibody binding in amyloid beta 1-42 derived antigens regardless of the physical form or aggregation state (Crisostomo et al., 2015. Data Brief. 2015 Aug. 6; 4:650-8.; Frenzel et al., 2014. PLoS One. 2014 Mar. 3; 9(3):e89490). Amyloid beta aggregates were prepared by incubation of monomeric synthetic amyloid beta 1-42 monomer in either F-12 medium (for oligomers) or 10 mM HCl (for fibrils) essentially as described by Dahlgren et al. (2002. J Biol Chem. 2002 Aug. 30; 277(35):32046-53). Amyloid beta derived antigens in different forms (oligomer, monomer, fibril, all at 5 μg/ml) were immobilized to Nunc Amino Immobilizer plates and blocked with ethanolamine according to the manufacturer's instructions. After washing, plates were probed with different concentrations of either FLAG-tagged CBB-VNAR or biotinylated 6E10 antibody (in parallel and on the same plates) for 1 hour. Bound antibody was then detected using anti-FLAG-M2-HRP (for CBB-VNAR) or with streptavidin-HRP (for 6E10-biotin). […]

T1 sequence (P05067 672-713): as the sequence (P05067 672-713 limits assumed) above

B1: CBB-VNAR (FLAG-tagged) (VNAR)
VNAR: AWVDQTPRTATKETGESLTINCVLRDQNGWSRTGWYRTKLGSTNEQSISIGGRYVETVNKGSKSFSLRISDLRVEDSGTYKCQALLNPRREEFWFSRRYPVVKGAGTALTVKA
notes: Monomeric shark-type VNAR single domain (Mw 15 kDa); not shown: FLAG tag
Consider B1, for which the results for the EC50 in assay [1], in assay [4] and in assay [5] were 0.01 µg/mL, 0.1 µg/mL and 0.004 µg/mL, respectively. Moreover, in assay [2], the “Trp emission intensity at saturation with oligomer, relative to the native protein” value was approximately 70%. Besides, in assay [3], the 50% effective concentration (EC50 (read off the curve)) was approximately 8 µg/mL.

Usually EC50 stands for the concentration at which the effect is half-maximal. As usually defined, the EC50 (read off the curve) is the concentration giving half of the maximal effect.
